These results are taken from article PMC9963752 (Proceedings of the National Academy of Sciences of the …, 2023).

One experiment deals with GRPR. The note with it: relative to PD176252 (methoxy group replaced by hydrogen); cited from earlier work.
The target of experiment [1] is GRPR with alanine mutation of C93^2.57 (human, UniProt P30550 1-384, alanine mutation of C93^2.57). As to the kind of experiment: cell-based or functional assay.
The target in experiment [2] is GRPR with alanine mutation of Q120^3.30 (human, UniProt P30550 1-384, alanine mutation of Q120^3.30). As to the kind of experiment: cell-based or functional assay.

No end group written: not given here.

As to `C[C@@](Cc1c[nH]c2ccccc12)(NC(=O)Nc1ccc([N+](=O)[O-])cc1)C(=O)NCC1(c2ccccn2)CCCCC1` [PD168368], in the experiment on GRPR, the “reduction for GRPR binding” value is on record as 17 fold.

B1: gastrin-releasing peptide (peptide)
peptide: VPLPAGGGTVLTKMYPRGNHWAVGHLM-NH2
B1: the “GRP-induced calcium mobilization in transfected CHO cells: EC50 against WT-GRPR” value in experiment [1] is 12 fold; in experiment [2] it was 25 fold.
